± gives the half width of the 95% confidence interval.
Key:
[1] = folding stability dG unfold from trypsin proteolysis; higher = more stable
Summary of the method: (§1)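 Mini-proteins designed to be under 80 residues and free of cysteine were carried in a PA-tagged cDNA display construct and digested with trypsin and with chymotrypsin. Each protease was applied at 11 threefold-diluted concentrations, alongside a no-protease condition, before sequencing. K50 came from Bayesian fitting of the sequencing counts, and unfolding free energy was obtained by comparing it with a sequence-predicted unfolded-state K50 and a shared folded-state K50, for each protease separately or for both together. Designs were retained only if their AlphaFold2 dimer inter-PAE exceeded 15.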

[2] = folding stability dG unfold from chymotrypsin proteolysis; higher = more stable
Summary of the method: as §1

[3] = folding stability dG unfold (combined trypsin and chymotrypsin); higher = more stable
Summary of the method: as §1

SAGGSAGGSAGGIEIRGPNGAELKIESDPDWGMVSIEMPGNRQEIQIPIPLPKPDPEDKNSAGGSAGGSAGG [r7_383_TrROS]
folding stability dG unfold [1]: 0.838 ± 0.038 kcal/mol | folding stability dG unfold [2]: 0.22 ± 0.031 kcal/mol | folding stability dG unfold [3]: 0.568 ± 0.072 kcal/mol

SAGGSAGGSAGKPIKLEEVLEKLNPEKIESVFVFPPIPYVVVLLKDSNGNKKIIVVKEDKSAGGSAGGSAGG [r17_374_TrMRF]
folding stability dG unfold [1]: 0.695 ± 0.019 kcal/mol | folding stability dG unfold [2]: 0.922 ± 0.21 kcal/mol | folding stability dG unfold [3]: 0.837 ± 0.13 kcal/mol

SATPTLTLEFEVEVEDPNAPGVPAPAKFTAEVAVTPPPVLYVGGEPWAGALLEQGLVTVGPDGLIAIPASAG [r14_582_TrMRF]
folding stability dG unfold [1]: 0.442 ± 0.072 kcal/mol | folding stability dG unfold [2]: 1.11 ± 0.13 kcal/mol | folding stability dG unfold [3]: 0.775 ± 0.13 kcal/mol

SAGGSAGGSAGETITVKIVRFKPGSPEVRKLAEKLGLSEEEVEPVEVFTFKSEEELKAALSAGGSAGGSAGG [r11_83_TrROS_Hall]
folding stability dG unfold [1]: -0.172 ± 0.12 kcal/mol | folding stability dG unfold [2]: 0.471 ± 0.24 kcal/mol | folding stability dG unfold [3]: 0.374 ± 0.16 kcal/mol

SAGMIVTVLSKEVDPATGSTTTYSVSTDPETGETFLYTTTTTGDTVTTTRTVFFPGTGTTSTSTTTTSASAG [r5_150_JUSTAS]
folding stability dG unfold [1]: 2.17 ± 0.056 kcal/mol | folding stability dG unfold [2]: 3.019 ± 0.017 kcal/mol | folding stability dG unfold [3]: 2.73 ± 0.046 kcal/mol

SAGGSAGGMTITISTGSSGLTVNITLTPPTGPPVTVTISFDPSELEEFLKELPDYEIESITVEGSAGGSAGG [r6_879_JUSTAS]
folding stability dG unfold [1]: 2.79 ± 0.17 kcal/mol | folding stability dG unfold [2]: 2.73 ± 0.15 kcal/mol | folding stability dG unfold [3]: 2.8 ± 0.13 kcal/mol

SAMYLIKITIYNEETGEKIAELTLEVEEEDLEELLEEIRKKLNLPPGAKIKVEIVPLEPVVLPDGKLLKSAG [r14_297_TrROS_Hall]
folding stability dG unfold [1]: 0.724 ± 0.12 kcal/mol | folding stability dG unfold [2]: 2.54 ± 0.2 kcal/mol | folding stability dG unfold [3]: 1.7 ± 0.27 kcal/mol

SAGPEITREFVSYDPETGLRYFEYTLINKKNGKEVKKVKVGYSLYDLASGTERPLPEEELKKRAEEALKSAG [r5_909_JUSTAS]
folding stability dG unfold [1]: -0.118 ± 0.13 kcal/mol | folding stability dG unfold [2]: 0.433 ± 0.16 kcal/mol | folding stability dG unfold [3]: 0.24 ± 0.16 kcal/mol

SAGGSAGGSAKPEAVAPAVFTLDGVPYLVPVRVLEAGLSPDQKLLVLGTLPNGEPFLAVFDASAGGSAGGSA [r18_54_TrMRF]
folding stability dG unfold [1]: 0.744 ± 0.058 kcal/mol | folding stability dG unfold [2]: 1.57 ± 0.082 kcal/mol | folding stability dG unfold [3]: 1.27 ± 0.12 kcal/mol

SAGGMTLEITITFPGPEMLEEAKKIIDELGIELVNPTPNSLTVKAKGPEEVAKIKEEAKKLGFTVTGSAGGS [r16_88_JUSTAS]
folding stability dG unfold [1]: 2.92 ± 0.21 kcal/mol | folding stability dG unfold [2]: 3.19 ± 0.086 kcal/mol | folding stability dG unfold [3]: 3.13 ± 0.14 kcal/mol

SAGGDPPDIYVQIEHKNGKTRTIPFDNMSIENIAEELRDHNYDEVKISVFRMGKPIETFKIKIPPGDSAGGS [r16_700_TrROS]
folding stability dG unfold [1]: 3.7 ± 0.27 kcal/mol | folding stability dG unfold [2]: 2.95 ± 0.15 kcal/mol | folding stability dG unfold [3]: 3.08 ± 0.52 kcal/mol

MAIVHIDFSFPDGGPTLSFEIPVPNLGPAGEEEILERASELTGISREVIRKNTEIEPIPETGDYKVTINVSS [r1_285_JUSTAS]
folding stability dG unfold [1]: 1.46 ± 0.033 kcal/mol | folding stability dG unfold [2]: 1.14 ± 0.033 kcal/mol | folding stability dG unfold [3]: 1.36 ± 0.069 kcal/mol

SAGGSAGGSDYLMIWIPPDALKGMPPGQEIEFEIKFNGGEYKVKIKVMPHENGHYMIMITVEPSAGGSAGGS [r12_433_TrROS]
folding stability dG unfold [1]: 3.2 ± 0.35 kcal/mol | folding stability dG unfold [2]: 4.59 ± 0.3 kcal/mol | folding stability dG unfold [3]: 4.06 ± 0.25 kcal/mol

SAGMPIKAKVLIFDPVNPVPKEFEFDVEDLDELVEKIREELGVEVVVDPESGVVVVDTPDGSLIVIEFDSAG [r5_937_TrMRF]
folding stability dG unfold [1]: 3.08 ± 0.093 kcal/mol | folding stability dG unfold [2]: 2.93 ± 0.077 kcal/mol | folding stability dG unfold [3]: 3.01 ± 0.043 kcal/mol

SAGGSAGGSSAEEVAASYPVTEVEYDPVTNTTTVTAEFPDSRIVLTYDPATGTVTTEVLPPLRSAGGSAGGS [r12_214_JUSTAS]
folding stability dG unfold [1]: 0.508 ± 0.018 kcal/mol | folding stability dG unfold [2]: 0.749 ± 0.035 kcal/mol | folding stability dG unfold [3]: 0.654 ± 0.17 kcal/mol

SSSMPVTVEIEAKKLSNGKYLAKITVKDANGNELEEYEKEMDESEVEKLKEELKKKYPNMKVTMTYKDELSA [r9_374_JUSTAS]
folding stability dG unfold [1]: 3.3 ± 0.34 kcal/mol | folding stability dG unfold [2]: 4.17 ± 0.14 kcal/mol | folding stability dG unfold [3]: 4.17 ± 0.45 kcal/mol

SAGGSAGGDSIEFIIPYDDMPKEEAKRRVRWIANGFAEHNPGKPIEIEIHVIPVPPPPSPEDKNSAGGSAGG [r6_729_TrROS]
folding stability dG unfold [1]: -0.0761 ± 0.16 kcal/mol | folding stability dG unfold [2]: -0.467 ± 0.66 kcal/mol | folding stability dG unfold [3]: -0.163 ± 0.16 kcal/mol

SAGKKLLVVVEIRVFDKDGKLVREERLVIEVPEEDEEALRRLLEEARRLAEALLPPGARVEIRVRVLPPSAG [r5_793_TrROS_Hall]
folding stability dG unfold [1]: 2.98 ± 0.13 kcal/mol | folding stability dG unfold [2]: 3.82 ± 0.11 kcal/mol | folding stability dG unfold [3]: 3.6 ± 0.15 kcal/mol

SAGGSAGGSAGKVEITVEKNPETGLYTVRIKTEDGKEIEITVPKNMTLEELKKLAEELLKSAGGSAGGSAGG [r17_161_TrROS_Hall]
folding stability dG unfold [1]: 4.43 ± 0.22 kcal/mol | folding stability dG unfold [2]: 4.42 ± 0.11 kcal/mol | folding stability dG unfold [3]: 4.42 ± 0.1 kcal/mol

SAGGSAGGSAGGSGGSARIEVERLPDGLVLLRIYDPETGEEIEIPMPPDLARSFVFLNGSAGGSAGGSAGGS [r4_494_TrMRF]
folding stability dG unfold [1]: 0.471 ± 0.026 kcal/mol | folding stability dG unfold [2]: 1.51 ± 0.085 kcal/mol | folding stability dG unfold [3]: 1.11 ± 0.045 kcal/mol

SAGGMKVYKTPDKITIELTHPETGEKAKGTYTPSTGKMTITYPNKLTVTISVDSNGNLTPVEKKPLLSAGGS [r16_127_JUSTAS]
folding stability dG unfold [1]: 0.592 ± 0.046 kcal/mol | folding stability dG unfold [2]: 0.577 ± 0.1 kcal/mol | folding stability dG unfold [3]: 0.626 ± 0.069 kcal/mol

SAGGSAKKKIIEIKIKVKTKEEAKEAIEKLSEELKKKIKKIEIVEIKEKDGEYYVKIKIEVPPNEKSAGGSA [r15_244_TrROS_Hall]
folding stability dG unfold [1]: 1.97 ± 0.063 kcal/mol | folding stability dG unfold [2]: 2.32 ± 0.075 kcal/mol | folding stability dG unfold [3]: 2.25 ± 0.14 kcal/mol

SAGGMTIRVEVFRDGELVETLEFEGSVEELLAKLPPEVTYVRIEVEKDGKTETVEFKTAEELKAALKSSAGG [r13_299_TrROS_Hall]
folding stability dG unfold [1]: 2.13 ± 0.076 kcal/mol | folding stability dG unfold [2]: 3.33 ± 0.067 kcal/mol | folding stability dG unfold [3]: 2.91 ± 0.17 kcal/mol

SAGGSAGGVEPVVVGRVPVVVRDPATGELREAEILRALPDGTLFIRFPNGERAEIRGAPVLSLASAGGSAGG [r6_433_TrMRF]
folding stability dG unfold [1]: 1.07 ± 0.035 kcal/mol | folding stability dG unfold [2]: 1.54 ± 0.096 kcal/mol | folding stability dG unfold [3]: 1.35 ± 0.086 kcal/mol

SAGGSAGGSAGVKEGEEIEITLENGKTFTAKIEYDKETGYYKITIKDKKTNKEYEFVFKVSAGGSAGGSAGG [r11_960_TrROS_Hall]
folding stability dG unfold [1]: 2.62 ± 0.3 kcal/mol | folding stability dG unfold [2]: 4.39 ± 0.17 kcal/mol | folding stability dG unfold [3]: 4.04 ± 0.22 kcal/mol

SAGGSDKEHDVEIKINIYVHDDGYIHIDIEVYNPGSPRPIMKFTIHIPAKDMQKKTGRPMTLEDILSAGGSA [r2_180_TrROS]
folding stability dG unfold [1]: 1.73 ± 0.16 kcal/mol | folding stability dG unfold [2]: 2.75 ± 0.074 kcal/mol | folding stability dG unfold [3]: 2.38 ± 0.2 kcal/mol

SALPALLEAAEAGESGTFIPIVADPEAAAVLRAVLERLGFTLVSEEPVPAGARPVFVGVYYFDPVSGRNRSA [r9_498_TrMRF]
folding stability dG unfold [1]: 1.1 ± 0.047 kcal/mol | folding stability dG unfold [2]: 2.38 ± 0.17 kcal/mol | folding stability dG unfold [3]: 1.84 ± 0.091 kcal/mol

SAGGSAGGSAGGPKYKIEIEIKKIKVKVEKTVKYDGKTYKEEKEFEVLEIKIKIEPEGESAGGSAGGSAGGS [r10_118_TrROS_Hall]
folding stability dG unfold [1]: 3.19 ± 0.36 kcal/mol | folding stability dG unfold [2]: 4.29 ± 0.21 kcal/mol | folding stability dG unfold [3]: 4.05 ± 0.29 kcal/mol

SAGGSAGGNIKVKVPYERHPDYYYMTVTIYDPGDDKKLELSYMFPPGTKMPAEEWARDIVKDILSAGGSAGG [r6_234_TrROS]
folding stability dG unfold [1]: 0.789 ± 0.091 kcal/mol | folding stability dG unfold [2]: 1.29 ± 0.1 kcal/mol | folding stability dG unfold [3]: 1.13 ± 0.13 kcal/mol

SAGAMKITMPEDISVSPSGGATVTITVEFPDKDAVYTVPVTFPDVKSVEEVLARAEEVGKEFAEELKKKSAG [r5_940_JUSTAS]
folding stability dG unfold [1]: 0.484 ± 0.046 kcal/mol | folding stability dG unfold [2]: 0.872 ± 0.063 kcal/mol | folding stability dG unfold [3]: 0.73 ± 0.099 kcal/mol

SAGGMSIEELLKEAGYEVTVEEEEVDGKLRLKITIKANGKTLVIEVPESDAEEVLREIAKALGLEPESAGGS [r8_226_TrROS_Hall]
folding stability dG unfold [1]: 4.2 ± 0.42 kcal/mol | folding stability dG unfold [2]: 3.01 ± 0.047 kcal/mol | folding stability dG unfold [3]: 3.53 ± 0.18 kcal/mol

— the supplement of paper PMC12764529
